B1: Spindle assembly abnormal protein 6 (Caenorhabditis elegans), O62479 (parent)
chain: MTSKIALFDQTLIASLLQPLSLNQPDFKAYKTKVKLKISEQRNETSGEKELKFEISRSDDFEFLFSETLNNEKYQILARDHDLTVDFDAFPKVIIQHLLCKNIVKNLEEDGEVDARKKAGYHSIADPGKPTEINIILDAEKNFCSFELFSKTPISKGKIFSIKLHAVRGDHLISHLLKICSSQAVKLSTFYKSADELASLRQKCGDLEKQVEKLSGVKEEFEEMSEKFKELEDEVELVKEERENIRLLVEDKEDEVADLKQDTESLQKQLEENQEELEIVGNMLREEQGKVDQLQKRNVAHQKEIGKLRAELGTAQRNLEKADQLLKRNSQQQNQQSLDMRKLGELEADLKEKDSMVESLTETIGILRKELENEKLKAAENMDSFEKLSMENENLKEKIAHYRAQRFSPAPSGLPGLQTGLTNRLTPSFKPVLGPHTPYGANLNSRTPFRDNTTLNFQNSTIATPHAFRFNSQLIADETTGSSVTNTPPAQR
partner: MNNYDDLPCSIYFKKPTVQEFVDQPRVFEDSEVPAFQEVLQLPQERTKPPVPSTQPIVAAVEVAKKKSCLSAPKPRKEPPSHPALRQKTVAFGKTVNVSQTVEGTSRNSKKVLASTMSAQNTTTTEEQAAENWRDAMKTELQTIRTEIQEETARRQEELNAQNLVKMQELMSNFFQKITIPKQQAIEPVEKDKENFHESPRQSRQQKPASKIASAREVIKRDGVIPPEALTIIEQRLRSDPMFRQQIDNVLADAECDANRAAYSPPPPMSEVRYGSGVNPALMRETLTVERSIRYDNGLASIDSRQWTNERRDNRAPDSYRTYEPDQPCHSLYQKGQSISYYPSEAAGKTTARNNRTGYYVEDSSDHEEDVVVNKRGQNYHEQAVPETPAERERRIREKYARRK

Variants of: B1
Conditions: with sas5_caeel sas-5, Q20010

| effect of a mutation on the interaction | Variant |
| --- | --- |
| decreasing interaction | MTSKIALFDQTLIASLLQPLSLNQPDFKAYKTKVKLKISEQRNETSGEKELKFEISRSDDFEFLFSETLNNEKYQILARDHDLTVDFDAFPKVIIQHLLCKNIVKNLEEDGEVDARKKAGYHSIADPGKPTEINIILDAEKNFCSFELFSKTPISKGKIFSIKLHAVRGDHLISHLLKICSSQAVKLSTFYKSADELASLRQKCGDLEKQVEKLSGVKEEFEEMSEKFKELEDEVELVKEERENIRLLVEDKEDEVADLKQDTESLQKQLEENQEELEIVGNALREEQGKVDQLQKRNVAHQKEIGKLRAELGTAQRNLEKADQLLKRNSQQQNQQSLDMRKLGELEADLKEKDSMVESLTETIGILRKELENEKLKAAENMDSFEKLSMENENLKEKIAHYRAQRFSPAPSGLPGLQTGLTNRLTPSFKPVLGPHTPYGANLNSRTPFRDNTTLNFQNSTIATPHAFRFNSQLIADETTGSSVTNTPPAQR [M283A] |
| decreasing interaction | MTSKIALFDQTLIASLLQPLSLNQPDFKAYKTKVKLKISEQRNETSGEKELKFEISRSDDFEFLFSETLNNEKYQILARDHDLTVDFDAFPKVIIQHLLCKNIVKNLEEDGEVDARKKAGYHSIADPGKPTEINIILDAEKNFCSFELFSKTPISKGKIFSIKLHAVRGDHLISHLLKICSSQAVKLSTFYKSADELASLRQKCGDLEKQVEKLSGVKEEFEEMSEKFKELEDEVELVKEERENIRLLVEDKEDEVADLKQDTESLQKQLEENQEELEAVGNMLREEQGKVDQLQKRNVAHQKEIGKLRAELGTAQRNLEKADQLLKRNSQQQNQQSLDMRKLGELEADLKEKDSMVESLTETIGILRKELENEKLKAAENMDSFEKLSMENENLKEKIAHYRAQRFSPAPSGLPGLQTGLTNRLTPSFKPVLGPHTPYGANLNSRTPFRDNTTLNFQNSTIATPHAFRFNSQLIADETTGSSVTNTPPAQR [I279A] |

Variants of: B1
Conditions: with sas5_caeel sas-5, Q20010
Remark: another data set of the same source

| effect of a mutation on the interaction | Variant |
| --- | --- |
| disrupting interaction | MTSKIALFDQTLIASLLQPLSLNQPDFKAYKTKVKLKISEQRNETSGEKELKFEISRSDDFEFLFSETLNNEKYQILARDHDLTVDFDAFPKVIIQHLLCKNIVKNLEEDGEVDARKKAGYHSIADPGKPTEINIILDAEKNFCSFELFSKTPISKGKIFSIKLHAVRGDHLISHLLKICSSQAVKLSTFYKSADELASLRQKCGDLEKQVEKLSGVKEEFEEMSEKFKELEDEVELVKEERENIRLLVEDKEDEVADLKQDTESLQKQLEENQEELEIVGNALREEQGKVDQLQKRNVAHQKEIGKLRAELGTAQRNLEKADQLLKRNSQQQNQQSLDMRKLGELEADLKEKDSMVESLTETIGILRKELENEKLKAAENMDSFEKLSMENENLKEKIAHYRAQRFSPAPSGLPGLQTGLTNRLTPSFKPVLGPHTPYGANLNSRTPFRDNTTLNFQNSTIATPHAFRFNSQLIADETTGSSVTNTPPAQR [M283A] |
| disrupting interaction | MTSKIALFDQTLIASLLQPLSLNQPDFKAYKTKVKLKISEQRNETSGEKELKFEISRSDDFEFLFSETLNNEKYQILARDHDLTVDFDAFPKVIIQHLLCKNIVKNLEEDGEVDARKKAGYHSIADPGKPTEINIILDAEKNFCSFELFSKTPISKGKIFSIKLHAVRGDHLISHLLKICSSQAVKLSTFYKSADELASLRQKCGDLEKQVEKLSGVKEEFEEMSEKFKELEDEVELVKEERENIRLLVEDKEDEVADLKQDTESLQKQLEENQEELEAVGNMLREEQGKVDQLQKRNVAHQKEIGKLRAELGTAQRNLEKADQLLKRNSQQQNQQSLDMRKLGELEADLKEKDSMVESLTETIGILRKELENEKLKAAENMDSFEKLSMENENLKEKIAHYRAQRFSPAPSGLPGLQTGLTNRLTPSFKPVLGPHTPYGANLNSRTPFRDNTTLNFQNSTIATPHAFRFNSQLIADETTGSSVTNTPPAQR [I279A] |

Variants of: B1
Conditions: with sas5_caeel sas-5, Q20010
Remark: another data set of the same source

| effect of a mutation on the interaction | Variant |
| --- | --- |
| decreasing interaction | MTSKIALFDQTLIASLLQPLSLNQPDFKAYKTKVKLKISEQRNETSGEKELKFEISRSDDFEFLFSETLNNEKYQILARDHDLTVDFDAFPKVIIQHLLCKNIVKNLEEDGEVDARKKAGYHSIADPGKPTEINIILDAEKNFCSFELFSKTPISKGKIFSIKLHAVRGDHLISHLLKICSSQAVKLSTFYKSADELASLRQKCGDLEKQVEKLSGVKEEFEEMSEKFKELEDEVELVKEERENIRLLVEDKEDEVADLKQDTESLQKQLEENQEELAIVGNMLREEQGKVDQLQKRNVAHQKEIGKLRAELGTAQRNLEKADQLLKRNSQQQNQQSLDMRKLGELEADLKEKDSMVESLTETIGILRKELENEKLKAAENMDSFEKLSMENENLKEKIAHYRAQRFSPAPSGLPGLQTGLTNRLTPSFKPVLGPHTPYGANLNSRTPFRDNTTLNFQNSTIATPHAFRFNSQLIADETTGSSVTNTPPAQR [E278A] |
| decreasing interaction | MTSKIALFDQTLIASLLQPLSLNQPDFKAYKTKVKLKISEQRNETSGEKELKFEISRSDDFEFLFSETLNNEKYQILARDHDLTVDFDAFPKVIIQHLLCKNIVKNLEEDGEVDARKKAGYHSIADPGKPTEINIILDAEKNFCSFELFSKTPISKGKIFSIKLHAVRGDHLISHLLKICSSQAVKLSTFYKSADELASLRQKCGDLEKQVEKLSGVKEEFEEMSEKFKELEDEVELVKEERENIRLLVEDKEDEVADLKQDTESLQKQLEENQAELEIVGNMLREEQGKVDQLQKRNVAHQKEIGKLRAELGTAQRNLEKADQLLKRNSQQQNQQSLDMRKLGELEADLKEKDSMVESLTETIGILRKELENEKLKAAENMDSFEKLSMENENLKEKIAHYRAQRFSPAPSGLPGLQTGLTNRLTPSFKPVLGPHTPYGANLNSRTPFRDNTTLNFQNSTIATPHAFRFNSQLIADETTGSSVTNTPPAQR [E275A] |
| decreasing interaction | MTSKIALFDQTLIASLLQPLSLNQPDFKAYKTKVKLKISEQRNETSGEKELKFEISRSDDFEFLFSETLNNEKYQILARDHDLTVDFDAFPKVIIQHLLCKNIVKNLEEDGEVDARKKAGYHSIADPGKPTEINIILDAEKNFCSFELFSKTPISKGKIFSIKLHAVRGDHLISHLLKICSSQAVKLSTFYKSADELASLRQKCGDLEKQVEKLSGVKEEFEEMSEKFKELEDEVELVKEERENIRLLVEDKEDEVADLKQDTESLQKQLEENQEALEIVGNMLREEQGKVDQLQKRNVAHQKEIGKLRAELGTAQRNLEKADQLLKRNSQQQNQQSLDMRKLGELEADLKEKDSMVESLTETIGILRKELENEKLKAAENMDSFEKLSMENENLKEKIAHYRAQRFSPAPSGLPGLQTGLTNRLTPSFKPVLGPHTPYGANLNSRTPFRDNTTLNFQNSTIATPHAFRFNSQLIADETTGSSVTNTPPAQR [E276A] |

Variants of: B1
Conditions: with sas5_caeel sas-5, Q20010
Remark: another data set of the same source

| effect of a mutation on the interaction | Variant |
| --- | --- |
| disrupting interaction | MTSKIALFDQTLIASLLQPLSLNQPDFKAYKTKVKLKISEQRNETSGEKELKFEISRSDDFEFLFSETLNNEKYQILARDHDLTVDFDAFPKVIIQHLLCKNIVKNLEEDGEVDARKKAGYHSIADPGKPTEINIILDAEKNFCSFELFSKTPISKGKIFSIKLHAVRGDHLISHLLKICSSQAVKLSTFYKSADELASLRQKCGDLEKQVEKLSGVKEEFEEMSEKFKELEDEVELVKEERENIRLLVEDKEDEVADLKQDTESLQKQLEENQEELAIVGNMLREEQGKVDQLQKRNVAHQKEIGKLRAELGTAQRNLEKADQLLKRNSQQQNQQSLDMRKLGELEADLKEKDSMVESLTETIGILRKELENEKLKAAENMDSFEKLSMENENLKEKIAHYRAQRFSPAPSGLPGLQTGLTNRLTPSFKPVLGPHTPYGANLNSRTPFRDNTTLNFQNSTIATPHAFRFNSQLIADETTGSSVTNTPPAQR [E278A] |
| disrupting interaction | MTSKIALFDQTLIASLLQPLSLNQPDFKAYKTKVKLKISEQRNETSGEKELKFEISRSDDFEFLFSETLNNEKYQILARDHDLTVDFDAFPKVIIQHLLCKNIVKNLEEDGEVDARKKAGYHSIADPGKPTEINIILDAEKNFCSFELFSKTPISKGKIFSIKLHAVRGDHLISHLLKICSSQAVKLSTFYKSADELASLRQKCGDLEKQVEKLSGVKEEFEEMSEKFKELEDEVELVKEERENIRLLVEDKEDEVADLKQDTESLQKQLEENQAELEIVGNMLREEQGKVDQLQKRNVAHQKEIGKLRAELGTAQRNLEKADQLLKRNSQQQNQQSLDMRKLGELEADLKEKDSMVESLTETIGILRKELENEKLKAAENMDSFEKLSMENENLKEKIAHYRAQRFSPAPSGLPGLQTGLTNRLTPSFKPVLGPHTPYGANLNSRTPFRDNTTLNFQNSTIATPHAFRFNSQLIADETTGSSVTNTPPAQR [E275A] |
| disrupting interaction | MTSKIALFDQTLIASLLQPLSLNQPDFKAYKTKVKLKISEQRNETSGEKELKFEISRSDDFEFLFSETLNNEKYQILARDHDLTVDFDAFPKVIIQHLLCKNIVKNLEEDGEVDARKKAGYHSIADPGKPTEINIILDAEKNFCSFELFSKTPISKGKIFSIKLHAVRGDHLISHLLKICSSQAVKLSTFYKSADELASLRQKCGDLEKQVEKLSGVKEEFEEMSEKFKELEDEVELVKEERENIRLLVEDKEDEVADLKQDTESLQKQLEENQEALEIVGNMLREEQGKVDQLQKRNVAHQKEIGKLRAELGTAQRNLEKADQLLKRNSQQQNQQSLDMRKLGELEADLKEKDSMVESLTETIGILRKELENEKLKAAENMDSFEKLSMENENLKEKIAHYRAQRFSPAPSGLPGLQTGLTNRLTPSFKPVLGPHTPYGANLNSRTPFRDNTTLNFQNSTIATPHAFRFNSQLIADETTGSSVTNTPPAQR [E276A] |

Variants of: B1
Conditions: with sas5_caeel sas-5, Q20010
Remark: another data set of the same source

| effect of a mutation on the interaction | Variant |
| --- | --- |
| decreasing interaction | MTSKIALFDQTLIASLLQPLSLNQPDFKAYKTKVKLKISEQRNETSGEKELKFEISRSDDFEFLFSETLNNEKYQILARDHDLTVDFDAFPKVIIQHLLCKNIVKNLEEDGEVDARKKAGYHSIADPGKPTEINIILDAEKNFCSFELFSKTPISKGKIFSIKLHAVRGDHLISHLLKICSSQAVKLSTFYKSADELASLRQKCGDLEKQVEKLSGVKEEFEEMSEKFKELEDEVELVKEERENIRLLVEDKEDEVADLKQDTESLQKQLEENQEELEIVGNMLRAEQGKVDQLQKRNVAHQKEIGKLRAELGTAQRNLEKADQLLKRNSQQQNQQSLDMRKLGELEADLKEKDSMVESLTETIGILRKELENEKLKAAENMDSFEKLSMENENLKEKIAHYRAQRFSPAPSGLPGLQTGLTNRLTPSFKPVLGPHTPYGANLNSRTPFRDNTTLNFQNSTIATPHAFRFNSQLIADETTGSSVTNTPPAQR [E286A] |

Variants of: B1
Conditions: with sas5_caeel sas-5, Q20010
Remark: another data set of the same source

| effect of a mutation on the interaction | Variant |
| --- | --- |
| decreasing interaction | MTSKIALFDQTLIASLLQPLSLNQPDFKAYKTKVKLKISEQRNETSGEKELKFEISRSDDFEFLFSETLNNEKYQILARDHDLTVDFDAFPKVIIQHLLCKNIVKNLEEDGEVDARKKAGYHSIADPGKPTEINIILDAEKNFCSFELFSKTPISKGKIFSIKLHAVRGDHLISHLLKICSSQAVKLSTFYKSADELASLRQKCGDLEKQVEKLSGVKEEFEEMSEKFKELEDEVELVKEERENIRLLVEDKEDEVADLKQDTESLQKQLEENQEELEIVGNMLREAQGKVDQLQKRNVAHQKEIGKLRAELGTAQRNLEKADQLLKRNSQQQNQQSLDMRKLGELEADLKEKDSMVESLTETIGILRKELENEKLKAAENMDSFEKLSMENENLKEKIAHYRAQRFSPAPSGLPGLQTGLTNRLTPSFKPVLGPHTPYGANLNSRTPFRDNTTLNFQNSTIATPHAFRFNSQLIADETTGSSVTNTPPAQR [E287A] |

— IntAct's records for PubMed 23064147
